In assay [1] the test system is COP1 WD40 domain. In words: Grating-coupled interferometry (GCI) binding kinetics versus the COP1 WD40 domain. The settings on record: for Kd: ligand COP1 (2,000 pg/mm^2), analyte pre-monomerized by UV-B, highest concentration 2 μM, 150 mM NaCl, 20 mM HEPES 7.4, 2 mM BME, 25°C, 1:1 binding model, read-out: Kd (dissociation constant), + UV-B. The arrangement: species or system Arabidopsis. The procedure: For CRY2 activation, proteins were diluted to their final assay concentrations (as indicated in the figure legends) in Eppendorf tubes and exposed to 10 min of fluorescent light on ice.
The Creoptix WAVE system (Creoptix AG), a label‐free surface biosensor, was used to perform GCI experiments. All experiments were performed on 2PCH or 4PCH WAVEchips (quasi‐planar polycarboxylate surface; Creoptix AG). After a borate buffer conditioning (100 mM sodium borate pH 9.0, 1 M NaCl; Xantec), COP1 (ligand) was immobilized on the chip surface using standard amine‐coupling: 7 min activation [1:1 mix of 400 mM N‐(3‐dimethylaminopropyl)‐N′‐ethylcarbodiimide hydrochloride and 100 mM N‐hydroxysuccinimide (both Xantec)], injection of COP1 (10 μg/ml) in 10 mM sodium acetate pH 5.0 (Sigma) until the desired density was reached, and final quenching with 1 M ethanolamine pH 8.0 for 7 min (Xantec). […] Blank injections were used for double referencing and a dimethyl sulfoxide (DMSO) calibration curve for bulk correction. Analysis and correction of the obtained data were performed using the Creoptix WAVEcontrol software (applied corrections: X and Y offset; DMSO calibration; double referencing), and a one‐to‐one binding model or a heterogenous ligand model with bulk correction was used to fit all experiments.

In assay [2] the test system is COP1 WD40 domain. Description: Analytical size-exclusion chromatography binding assay. Conditions: Superdex 200 Increase 10/300 GL, ~4 μM per protein, 150 mM NaCl, 20 mM HEPES 7.4, 2 mM BME, protein pre-monomerized by UV-B. Set-up: species or system Arabidopsis. As to the method: 500 μl of the respective protein solution or a mixture (~ 4 μM per protein) was loaded sequentially onto the column, and elution at 0.75 ml/min was monitored by UV absorbance at 280 nm.
(In gel filtration, larger molecules generally elute earlier.)

“And” between values parts separate entries of the source, which are not always exact repeats. Equal values may be shown once.

B1: CRY2: recombinant full-length Arabidopsis cryptochrome 2 (protein)
chain: MKMDKKTIVWFRRDLRIEDNPALAAAAHEGSVFPVFIWCPEEEGQFYPGRASRWWMKQSLAHLSQSLKALGSDLTLIKTHNTISAILDCIRVTGATKVVFNHLYDPVSLVRDHTVKEKLVERGISVQSYNGDLLYEPWEIYCEKGKPFTSFNSYWKKCLDMSIESVMLPPPWRLMPITAAAEAIWACSIEELGLENEAEKPSNALLTRAWSPGWSNADKLLNEFIEKQLIDYAKNSKKVVGNSTSLLSPYLHFGEISVRHVFQCARMKQIIWARDKNSEGEESADLFLRGIGLREYSRYICFNFPFTHEQSLLSHLRFFPWDADVDKFKAWRQGRTGYPLVDAGMRELWATGWMHNRIRVIVSSFAVKFLLLPWKWGMKYFWDTLLDADLECDILGWQYISGSIPDGHELDRLDNPALQGAKYDPEGEYIRQWLPELARLPTEWIHHPWDAPLTVLKASGVELGTNYAKPIVDIDTARELLAKAISRTREAQIMIGAAPDEIVADSFEALGANTIKEPGLCPSVSSNDQQVPSAVRYNGSKRVKPEEEEERDMKKSRGFDERELFSTAESSSSSSVFFVSQSCSLASEGKNLEGIQDSSDQITTSLGKNGCK
modifications: left off: His10, N-terminal, cleaved | Twin-Strep, N-terminal, cleaved
For the molecule B1, in assay [1] (ligand COP1 (2000 pg/mm2), analyte + no additional light, highest concentration 14 μM), the “Binding to the COP1 WD40 domain in the absence of supplemental fluorescent light” value was “No binding was observed”.

B2: UVR8^12–381: UVR8 β-propeller core, residues 12–381 (protein, UniProt Q9FN03 12-381, looked up, fragment)
chain: APPRKVLIISAGASHSVALLSGDIVCSWGRGEDGQLGHGDAEDRPSPTQLSALDGHQIVSVTCGADHTVAYSQSGMEVYSWGWGDFGRLGHGNSSDLFTPLPIKALHGIRIKQIACGDSHCLAVTMEGEVQSWGRNQNGQLGLGDTEDSLVPQKIQAFEGIRIKMVAAGAEHTAAVTEDGDLYGWGWGRYGNLGLGDRTDRLVPERVTSTGGEKMSMVACGWRHTISVSYSGALYTYGWSKYGQLGHGDLEDHLIPHKLEALSNSFISQISGGWRHTMALTSDGKLYGWGWNKFGQVGVGNNLDQCSPVQVRFPDDQKVVQVSCGWRHTLAVTERNNVFAWGRGTNGQLGIGESVDRNFPKIIEALSVDG
B2: in assay [1], the Kd (as a rule, the free concentration of one partner at which half of the binding sites on the other are occupied at equilibrium, for simple one-to-one binding) was ~500 nM and 583 nM. For the same molecule, the “Interaction with the COP1 WD40 domain in size-exclusion chromatography, UV-B-activated” value in assay [2] is given as “interacts”.

B3: UVR8^12–415: UVR8 core with C-terminus extended to include the VP peptide motif, residues 12–415 (protein)
chain: APPRKVLIISAGASHSVALLSGDIVCSWGRGEDGQLGHGDAEDRPSPTQLSALDGHQIVSVTCGADHTVAYSQSGMEVYSWGWGDFGRLGHGNSSDLFTPLPIKALHGIRIKQIACGDSHCLAVTMEGEVQSWGRNQNGQLGLGDTEDSLVPQKIQAFEGIRIKMVAAGAEHTAAVTEDGDLYGWGWGRYGNLGLGDRTDRLVPERVTSTGGEKMSMVACGWRHTISVSYSGALYTYGWSKYGQLGHGDLEDHLIPHKLEALSNSFISQISGGWRHTMALTSDGKLYGWGWNKFGQVGVGNNLDQCSPVQVRFPDDQKVVQVSCGWRHTLAVTERNNVFAWGRGTNGQLGIGESVDRNFPKIIEALSVDGASGQHIESSNIDPSSGKSWVSPAERYAVVPDETG
modifications: left off: His10, N-terminal, cleaved | Twin-Strep, N-terminal, cleaved
B3: the Kd in assay [1] stood at 120 nM.

The values are drawn from article PMC6745501, “Plant photoreceptors and their signaling components compete for COP1 binding via VP peptide motifs” (The EMBO Journal, 2019).
